{
  "source": "paper PMC7810988",
  "about": "“Inositol pyrophosphates promote the interaction of SPX domains with the coiled-coil motif of PHR transcription factors to regulate plant phosphate homeostasis” (Nature Communications, 2019)",
  "proteins": {"B1": {"name": "wild-type AtPHR1^222–358 (domain or fragment)", "chain": "not shown", "notes": "AtPHR1, Arabidopsis thaliana, residues 222-358 (MYB and CC domains only); also called AtPHR1 MYB-CC; untagged AtPHR1^222–358; not shown: 6xHis, N-terminal, cleaved"}, "B2": {"name": "full-length OsPHR2 (OsPHR2^1-426, wild type) (natural protein)", "chain": "not shown", "notes": "OsPHR2, rice MYB-CC transcription factor, residues 1-426, called full-length; also called wild-type OsPHR2; not shown: 8xHis, N-terminal, cleaved; Strep, N-terminal, cleaved; GB1, N-terminal, cleaved"}, "B3": {"name": "AtPHR1^280–360 KHR/A (domain or fragment)", "chain": "not shown", "notes": "AtPHR1, Arabidopsis thaliana, residues 280-360, KHR motif mutated to alanine; not shown: 6xHis, N-terminal, cleaved"}, "B4": {"name": "wild-type AtPHR1^280–360 (pMH-HT construct) (domain or fragment)", "chain": "not shown", "notes": "AtPHR1, Arabidopsis thaliana, residues 280-360 (coiled-coil domain); also called AtPHR1 CC; AtPHR^280–360; not shown: 6xHis, N-terminal, cleaved"}},
  "biological_target": "the molecule itself",
  "experiment": "SEC-RALS; size-exclusion chromatography with right-angle light scattering; 50 µL of 2–10 mg/mL protein, 20 mM HEPES pH 7.5, 150 mM NaCl, Superdex 200 increase 10/300 GL, 25 °C",
  "data": [
    {"protein": "B1", "values": [
      {"measurement": "stoichiometry N", "result": 2}
    ]},
    {"protein": "B2", "values": [
      {"measurement": "stoichiometry N", "result": 4}
    ]},
    {"protein": "B3", "values": [
      {"measurement": "binding result", "result": "binds"}
    ]},
    {"protein": "B4", "values": [
      {"measurement": "stoichiometry N", "result": 4}
    ]}
  ]
}
